Laboratory results published in article PMC2850201 (Archives of biochemistry and biophysics, 2008).
Residue numbers refer to the chain shown, from its start. Names and notes keep the numbering of the source. “Also recorded” adds a separate entry of the source. Like-named read-outs stand apart in the source and are kept apart here. Peptide text beside a SMILES is read from it.

Experiments:
Phosphono-CheY [1] = target: Phosphono-CheY (Escherichia coli, UniProt P0AE67, D57C); format: binding, E. coli; settings: phosphono-CheY versus CheY~P
T87I Phosphono-CheY = T87I Phosphono-CheY (Escherichia coli, UniProt P0AE67, D57C/T87I); format: binding, E. coli; settings: ~2 μM protein, 100 mM HEPES, 10 mM MgCl2, 25 °C; no change in fluorescence intensity up to 500 μM peptide; uncertainty in intensity about 4 % due to noise
Sequence of T87I Phosphono-CheY (P0AE67 2-129 D57C/T87I limits assumed): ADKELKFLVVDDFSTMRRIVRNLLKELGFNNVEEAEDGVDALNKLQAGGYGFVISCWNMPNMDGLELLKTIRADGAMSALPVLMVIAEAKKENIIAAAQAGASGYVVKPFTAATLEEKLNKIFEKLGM

[2] = target: T87I/Y106W Phosphono-CheY (Escherichia coli, UniProt P0AE67, D57C/T87I/Y106W); format: binding, E. coli; settings: ~2 μM protein, 100 mM HEPES, 10 mM MgCl2, 25 °C; no change in fluorescence intensity up to 500 μM peptide; uncertainty in intensity about 4 % due to noise
Sequence of T87I/Y106W Phosphono-CheY (P0AE67 2-129 D57C/T87I/Y106W limits assumed): as the sequence (P0AE67 2-129 D57C/T87I limits assumed) above, with Y105W counted along it

[3] = target: FliM peptide (Escherichia coli) (UniProt P06974); settings: cited from earlier work
Sequence of FliM peptide (Escherichia coli) (P06974 whole entry): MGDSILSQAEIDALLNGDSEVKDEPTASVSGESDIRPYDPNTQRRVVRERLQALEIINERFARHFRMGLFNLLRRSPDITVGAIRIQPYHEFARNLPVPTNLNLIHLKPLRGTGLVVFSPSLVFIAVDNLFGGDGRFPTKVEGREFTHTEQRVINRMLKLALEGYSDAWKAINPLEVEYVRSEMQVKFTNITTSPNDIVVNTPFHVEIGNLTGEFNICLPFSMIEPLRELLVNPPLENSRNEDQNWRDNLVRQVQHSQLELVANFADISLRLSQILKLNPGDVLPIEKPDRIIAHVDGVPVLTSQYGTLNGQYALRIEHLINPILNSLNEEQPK

[4] = target: CheZ peptide (Escherichia coli) (UniProt P0A9H9); experiment: fluorescence; settings: cited from earlier work
Sequence of CheZ peptide (Escherichia coli) (P0A9H9 whole entry): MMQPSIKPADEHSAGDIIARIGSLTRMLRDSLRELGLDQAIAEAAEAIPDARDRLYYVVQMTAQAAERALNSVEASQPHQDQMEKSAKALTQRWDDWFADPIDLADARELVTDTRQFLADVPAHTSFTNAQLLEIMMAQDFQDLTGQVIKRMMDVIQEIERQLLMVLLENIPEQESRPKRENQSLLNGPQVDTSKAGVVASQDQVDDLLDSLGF

[5] = target: FliM peptide (Escherichia coli) (UniProt P06974); settings: cited from earlier work; remark: listed apart in the source
CheY~P = settings: cited from earlier work
CheZ = settings: cited from earlier work
flagellar rotation = settings: cited from earlier work
Phosphono-CheY [6] = target: T1, Phosphono-CheY (Escherichia coli, UniProt P0AE67 1-129, D57C, phosphonomethyl group on Cys57 (Pcy57)); experiment: ITC
T1 sequence (looked up): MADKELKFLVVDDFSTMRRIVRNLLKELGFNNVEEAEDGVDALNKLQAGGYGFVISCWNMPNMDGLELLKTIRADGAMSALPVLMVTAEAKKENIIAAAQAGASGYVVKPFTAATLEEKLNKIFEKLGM

Phosphono-CheY [7] = target: T1, Phosphono-CheY; experiment: ITC; remark: listed apart in the source
Phosphono-CheY [8] = target: T1, Phosphono-CheY; experiment: other fluorescence titration

CC[C@H](C)[C@H](NC(=O)[C@H](CCC(=O)O)NC(=O)[C@H](C)NC(=O)[C@H](CCC(N)=O)NC(=O)[C@H](CO)NC(=O)[C@H](CC(C)C)NC(=O)[C@@H](NC(=O)[C@H](CO)NC(=O)[C@H](CC(=O)O)NC(=O)CNC(=O)[C@@H](N)CCSC)[C@@H](C)CC)C(=O)N[C@@H](CC(=O)O)C(=O)N[C@@H](C)C(=O)N[C@@H](CC(C)C)C(=O)N[C@@H](CC(C)C)C(=O)N[C@@H](CC(N)=O)C(=O)O [FliM peptide] (H-MGDSILSQAEIDALLN-OH)
affinity / Kd for phosphono-CheY compared with CheY~P (Phosphono-CheY [1]): CheY~P binds the same FliM peptide with slightly higher affinity; also recorded: almost identical
Kd (fluorescence) (T87I Phosphono-CheY): Not detectable ^b
Kd (fluorescence) [2]: Not detectable ^b

CheY (from UniProt P0AE67)
Kd [3]: 680 µM
Kd [4]: 440 µM

CheY~P (from UniProt P0AE67)
Kd [5]: 27 µM
Kd [4]: 26 µM

B1: CheY~P: phosphorylated form of CheY (protein, UniProt P0AE67 2-129, looked up)
Chemotaxis protein CheY: ADKELKFLVVDDFSTMRRIVRNLLKELGFNNVEEAEDGVDALNKLQAGGYGFVISDWNMPNMDGLELLKTIRADGAMSALPVLMVTAEAKKENIIAAAQAGASGYVVKPFTAATLEEKLNKIFEKLGM
modifications: phosphorylated
half-life of CheY~P (CheY~P; in the absence of CheZ): 15 to 20 s
in vivo half-life of CheY~P (CheZ; in vivo, autophosphatase plus CheZ): less than a second

B2: T87I CheY: E. coli CheY mutant T87I (protein, UniProt P0AE67 2-129, looked up, variant T87I)
Chemotaxis protein CheY: B1 Chemotaxis protein CheY with T86I
autodephosphorylation rate (CheY~P): ~ 5 fold lower
sensitivity to CheZ (CheZ): completely resistant to CheZ activity
generation of clockwise rotation of the flagella (flagellar rotation): cannot generate clockwise rotation of the flagella

B3: T87I/Y106W CheY~P: phosphorylated T87I/Y106W CheY (protein, UniProt P0AE67 2-129, looked up, variant T87I Y106W)
Chemotaxis protein CheY: B1 Chemotaxis protein CheY with T86I, Y105W
modifications: phosphorylated
sensitivity to CheZ (CheZ): resistant to CheZ-promoted phosphatase activity

B4: T87I/Y106W CheY: E. coli CheY double mutant T87I/Y106W (protein, UniProt P0AE67 2-129, looked up, variant T87I Y106W)
Chemotaxis protein CheY: B1 Chemotaxis protein CheY with T86I, Y105W
autodephosphorylation rate (CheY~P): ~ 5 fold lower
sensitivity to CheZ (CheZ): completely resistant to CheZ activity
generation of clockwise rotation of the flagella (flagellar rotation): cannot generate clockwise rotation of the flagella

B5: T87C CheY~P: phosphorylated T87C CheY (protein, UniProt P0AE67 2-129, looked up, variant T87C)
Chemotaxis protein CheY: B1 Chemotaxis protein CheY with T86C
modifications: phosphorylated
sensitivity to CheZ-promoted phosphatase activity (CheZ): the same is true of T87C CheY~P

B6: Y106W CheY: Substitution of Tyr106 in E. coli CheY with tryptophan (protein, UniProt P0AE67 2-129, looked up, variant Y106W)
Chemotaxis protein CheY: B1 Chemotaxis protein CheY with Y105W
flagellar rotation / swimming phenotype (flagellar rotation): hyperactive mutant that generates mainly clockwise rotational bias

B7: T87I CheY~P: phosphorylated T87I CheY (protein, UniProt P0AE67 2-129, looked up, variant T87I)
Chemotaxis protein CheY: B1 Chemotaxis protein CheY with T86I
modifications: phosphorylated
sensitivity to CheZ (CheZ): resistant to CheZ-promoted phosphatase activity

AGVVASQDQVDDLLDSLGF [CheZ peptide]
dH (Phosphono-CheY [6]): -4.8 kcal/mol

MGDSILSQAEIDALLN [FliM peptide]
dH (Phosphono-CheY [6]): -2.4 kcal/mol
Kd (Phosphono-CheY [7]): 21 µM
Kd (Phosphono-CheY [8]): 38 ± 1 µM
